Some targets named below: DLG2_3, Q15700; DLG5_1, Q8TDM6; GRID2IP_2, A4D2P6; GRIP2_5, Q9C0E4; IL16_1, Q14005; IL16_3, Q14005; Inadl_4, Q8NI35; MAST1, Q9Y2H9; NHERF2_2, Q15599; PARD3_3, Q8TEW0.
Holding throughout (experiment): holdup assay
Holding throughout (parameters): key: below the threshold = too weak to quantify, mostly under pKd 3.1 to 4

Another test deals with T1, APBA1_1, Q02410.
T1 sequence (Q02410 651-752, limits assumed, looked up): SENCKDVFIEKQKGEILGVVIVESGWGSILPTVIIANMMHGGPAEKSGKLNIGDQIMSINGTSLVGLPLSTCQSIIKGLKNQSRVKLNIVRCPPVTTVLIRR

Another test deals with T2, APBA1_2, Q02410.
T2 sequence (Q02410 742-832, limits assumed, looked up): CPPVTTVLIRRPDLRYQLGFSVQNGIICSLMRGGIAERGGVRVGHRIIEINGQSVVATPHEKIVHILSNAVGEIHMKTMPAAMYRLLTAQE

For the next test, the target named is T3, APBA2_2, Q99767.
T3 sequence (Q99767 654-744, limits assumed, looked up): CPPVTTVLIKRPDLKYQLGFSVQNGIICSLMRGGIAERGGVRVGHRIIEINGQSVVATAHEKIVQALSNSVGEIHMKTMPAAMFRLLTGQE

For another test, the target named is T4, ARHGEF11, O15085.
T4 sequence (O15085 42-136, limits assumed, looked up): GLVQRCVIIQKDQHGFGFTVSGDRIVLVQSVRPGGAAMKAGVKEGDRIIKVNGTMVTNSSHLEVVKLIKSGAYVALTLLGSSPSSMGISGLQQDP

The target in another test is T5, DFNB31_1, Q9P202.
T5 sequence (Q9P202 135-233, limits assumed, looked up): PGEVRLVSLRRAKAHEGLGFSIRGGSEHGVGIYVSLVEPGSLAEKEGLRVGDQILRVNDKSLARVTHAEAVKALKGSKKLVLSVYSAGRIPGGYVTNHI

The target of another test is T6, DLG3_3, Q92796.
T6 sequence (Q92796 374-475, limits assumed, looked up): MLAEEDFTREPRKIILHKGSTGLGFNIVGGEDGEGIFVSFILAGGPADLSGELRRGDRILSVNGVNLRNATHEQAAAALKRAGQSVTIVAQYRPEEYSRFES

Another test addresses T7, GRIP1_2, Q9Y3R0.
T7 sequence (Q9Y3R0 145-248, limits assumed, looked up): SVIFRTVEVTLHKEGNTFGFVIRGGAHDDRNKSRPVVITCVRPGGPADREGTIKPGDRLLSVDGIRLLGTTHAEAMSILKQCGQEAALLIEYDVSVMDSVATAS

The next test concerns the target T8, GRIP1_3, Q9Y3R0.
T8 sequence (Q9Y3R0 247-346, limits assumed, looked up): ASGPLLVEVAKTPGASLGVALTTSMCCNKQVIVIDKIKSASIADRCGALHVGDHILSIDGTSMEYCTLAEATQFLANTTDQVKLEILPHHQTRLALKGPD

The next test addresses T9, GRIP1_4, Q9Y3R0.
T9 sequence (Q9Y3R0 467-571, limits assumed, looked up): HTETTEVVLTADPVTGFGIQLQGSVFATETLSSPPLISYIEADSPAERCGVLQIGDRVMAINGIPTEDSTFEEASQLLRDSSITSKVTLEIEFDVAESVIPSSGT

Another test has as its target T10, HTRA4, P83105.
T10 sequence (P83105 378-476, limits assumed, looked up): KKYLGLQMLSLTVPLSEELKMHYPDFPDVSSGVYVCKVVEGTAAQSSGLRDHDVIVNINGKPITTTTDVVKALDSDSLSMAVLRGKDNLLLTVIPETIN

In the next test the target is T11, MPP6, Q9NZW5.
T11 sequence (Q9NZW5 125-219, limits assumed, looked up): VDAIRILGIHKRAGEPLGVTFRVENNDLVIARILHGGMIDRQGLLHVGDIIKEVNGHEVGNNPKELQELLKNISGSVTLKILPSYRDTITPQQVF

Another test has as its target T12, MPP7, Q5T2T1.
T12 sequence (Q5T2T1 134-230, limits assumed, looked up): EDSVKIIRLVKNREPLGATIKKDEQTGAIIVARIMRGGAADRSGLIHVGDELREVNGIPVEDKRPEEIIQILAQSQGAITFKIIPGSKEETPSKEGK

The target in the next test is T13, PDZD7_3, Q9H5P4.
T13 sequence (Q9H5P4 857-944, limits assumed, looked up): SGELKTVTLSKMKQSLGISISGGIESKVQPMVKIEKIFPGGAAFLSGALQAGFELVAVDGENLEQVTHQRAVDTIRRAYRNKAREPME

Another test deals with T14, SNTG2, Q9NY99.
T14 sequence (Q9NY99 68-166, limits assumed, looked up): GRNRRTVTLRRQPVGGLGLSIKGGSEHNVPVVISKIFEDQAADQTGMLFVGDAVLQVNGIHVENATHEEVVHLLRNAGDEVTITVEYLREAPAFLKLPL

Setting [1] is: plain residues with an end cap or a label only (N-terminal biotin on a linker: ado-ado).
Where [2] appears, read: plain residues with an end cap or a label only (N-terminal biotin on a linker: ahx).
Where [3] appears, read: plain residues with an end cap or a label only (N-terminal biotin on a linker: (peg)3).

By pKd is commonly meant −log10 of the Kd, conventionally taken in molar units.

GRID2IP_2, A4D2P6, sequence (A4D2P6 272-370): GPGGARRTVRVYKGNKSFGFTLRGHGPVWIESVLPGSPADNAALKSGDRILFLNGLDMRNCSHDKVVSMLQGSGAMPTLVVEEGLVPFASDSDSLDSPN
Inadl_4, Q8NI35, sequence (Q8NI35 547-651): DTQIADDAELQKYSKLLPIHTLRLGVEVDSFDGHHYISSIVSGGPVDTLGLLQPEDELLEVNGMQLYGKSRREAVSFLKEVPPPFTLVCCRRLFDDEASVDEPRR
DLG5_1, Q8TDM6, sequence (Q8TDM6 617-713): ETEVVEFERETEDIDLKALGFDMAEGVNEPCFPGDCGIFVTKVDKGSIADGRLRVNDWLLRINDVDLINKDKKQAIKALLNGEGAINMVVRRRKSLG
NHERF2_2, Q15599, sequence (Q15599 142-238): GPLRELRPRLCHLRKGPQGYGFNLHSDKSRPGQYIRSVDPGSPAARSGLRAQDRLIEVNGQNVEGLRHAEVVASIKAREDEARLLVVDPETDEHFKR
GRIP2_5, Q9C0E4, sequence (Q9C0E4 544-642): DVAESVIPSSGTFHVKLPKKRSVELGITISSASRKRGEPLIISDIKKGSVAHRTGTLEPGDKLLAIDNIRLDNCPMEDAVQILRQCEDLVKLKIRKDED
MAST1, Q9Y2H9, sequence (Q9Y2H9 962-1065): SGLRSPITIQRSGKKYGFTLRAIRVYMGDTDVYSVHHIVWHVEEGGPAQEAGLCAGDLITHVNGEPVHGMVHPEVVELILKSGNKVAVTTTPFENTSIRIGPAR
IL16_1, Q14005, sequence (Q14005 210-306): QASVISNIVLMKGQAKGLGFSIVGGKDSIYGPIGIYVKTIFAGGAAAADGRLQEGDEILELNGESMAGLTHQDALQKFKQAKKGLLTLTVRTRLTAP
IL16_3, Q14005, sequence (Q14005 1107-1207): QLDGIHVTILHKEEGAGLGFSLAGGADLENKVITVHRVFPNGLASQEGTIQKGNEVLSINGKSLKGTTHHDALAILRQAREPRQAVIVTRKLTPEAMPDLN
PARD3_3, Q8TEW0, sequence (Q8TEW0 582-685): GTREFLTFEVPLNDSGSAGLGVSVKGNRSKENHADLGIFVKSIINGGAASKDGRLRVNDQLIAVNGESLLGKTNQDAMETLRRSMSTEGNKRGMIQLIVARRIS

As to NTANRRTTPV [CACNG2, Q9Y698], the negative logarithm of the Kd (pKd) result in the test with APBA1_1, Q02410 (setting [1]) was “below the threshold”; with APBA1_2, Q02410 (setting [1]) it was 3.76; in the test with APBA2_2, Q99767 (setting [1]), “below the threshold”; with ARHGEF11, O15085 (setting [1]) it was 3.83; with DFNB31_1, Q9P202 (setting [1]), 3.76; with DLG2_3, Q15700 (setting [1]), 4.82. Also, the pKd was 4.69 with DLG3_3, Q92796 (setting [1]); “below the threshold” with DLG5_1, Q8TDM6 (setting [1]); 3.89 in the test with GRID2IP_2, A4D2P6 (setting [1]); “below the threshold” in the test with GRIP1_2, Q9Y3R0 (setting [1]); “below the threshold” with GRIP1_3, Q9Y3R0 (setting [1]); “below the threshold” with GRIP1_4, Q9Y3R0 (setting [1]). Besides, the pKd entry was “below the threshold” with GRIP2_5, Q9C0E4 (setting [1]); “below the threshold” in the test with HTRA4, P83105 (setting [1]); “below the threshold” with IL16_1, Q14005 (setting [1]); “below the threshold” in the test with IL16_3, Q14005 (setting [1]); “below the threshold” with Inadl_4, Q8NI35 (setting [1]); “below the threshold” in the test with MAST1, Q9Y2H9 (setting [1]). Moreover, the negative-log Kd (pKd) entry was “below the threshold” with MPP6, Q9NZW5 (setting [1]); “below the threshold” in the test with MPP7, Q5T2T1 (setting [1]); “below the threshold” in the test with NHERF2_2, Q15599 (setting [1]); “below the threshold” with PARD3_3, Q8TEW0 (setting [1]); 4.19 in the test with PDZD7_3, Q9H5P4 (setting [1]); “below the threshold” with SNTG2, Q9NY99 (setting [1]).
Take AEASVACSLC [PTGIR, P43119]: the pKd entry with APBA1_1, Q02410 (setting [1]) was “below the threshold”; with APBA1_2, Q02410 (setting [1]), “below the threshold”; with APBA2_2, Q99767 (setting [1]) it was “below the threshold”; with ARHGEF11, O15085 (setting [1]), “below the threshold”; with DFNB31_1, Q9P202 (setting [1]), “below the threshold”; with DLG2_3, Q15700 (setting [1]) it was 3.49. Further, the pKd result was “below the threshold” in the test with DLG3_3, Q92796 (setting [1]); “below the threshold” with DLG5_1, Q8TDM6 (setting [1]); 3.77 in the test with GRID2IP_2, A4D2P6 (setting [1]); “below the threshold” with GRIP1_2, Q9Y3R0 (setting [1]); “below the threshold” with GRIP1_3, Q9Y3R0 (setting [1]); “below the threshold” with GRIP1_4, Q9Y3R0 (setting [1]). The pKd entry was “below the threshold” in the test with GRIP2_5, Q9C0E4 (setting [1]); “below the threshold” with HTRA4, P83105 (setting [1]); “below the threshold” with IL16_1, Q14005 (setting [1]); “below the threshold” in the test with IL16_3, Q14005 (setting [1]); “below the threshold” with Inadl_4, Q8NI35 (setting [1]); “below the threshold” with MAST1, Q9Y2H9 (setting [1]). For the same molecule, the pKd entry with MPP6, Q9NZW5 (setting [1]) was “below the threshold”; with MPP7, Q5T2T1 (setting [1]), “below the threshold”; with NHERF2_2, Q15599 (setting [1]) it was “below the threshold”; in the test with PARD3_3, Q8TEW0 (setting [1]) it was “below the threshold”; with PDZD7_3, Q9H5P4 (setting [1]) it was 4.47; in the test with SNTG2, Q9NY99 (setting [1]), “below the threshold”.
With TQKFRASTAL [FRMPD1, Q5SYB0], the pKd result was “below the threshold” with APBA1_1, Q02410 (setting [2]); 3.5 with APBA1_2, Q02410 (setting [2]); “below the threshold” with APBA2_2, Q99767 (setting [2]); 4.38 in the test with ARHGEF11, O15085 (setting [2]); “below the threshold” with DFNB31_1, Q9P202 (setting [2]); “below the threshold” with DLG2_3, Q15700 (setting [2]). In addition, the pKd with DLG3_3, Q92796 (setting [2]) is 3.85; with DLG5_1, Q8TDM6 (setting [2]) it was “below the threshold”; with GRID2IP_2, A4D2P6 (setting [2]), 4.18; with GRIP1_2, Q9Y3R0 (setting [2]) it was “below the threshold”; with GRIP1_3, Q9Y3R0 (setting [2]) it was “below the threshold”; with GRIP1_4, Q9Y3R0 (setting [2]), “below the threshold”. Besides, the pKd entry in the test with GRIP2_5, Q9C0E4 (setting [2]) is “below the threshold”; with HTRA4, P83105 (setting [2]), “below the threshold”; with IL16_1, Q14005 (setting [2]) it was “below the threshold”; with IL16_3, Q14005 (setting [2]), “below the threshold”; in the test with Inadl_4, Q8NI35 (setting [2]) it was “below the threshold”; with MAST1, Q9Y2H9 (setting [2]) it was 4.44. The pKd entry is “below the threshold” in the test with MPP6, Q9NZW5 (setting [2]); “below the threshold” with MPP7, Q5T2T1 (setting [2]); 4.03 with NHERF2_2, Q15599 (setting [2]); “below the threshold” in the test with PARD3_3, Q8TEW0 (setting [2]); 3.92 with PDZD7_3, Q9H5P4 (setting [2]); “below the threshold” with SNTG2, Q9NY99 (setting [2]).
As for RRRRSQSRESQC [HBV-HBc, P03193], the pKd entry in the test with APBA1_1, Q02410 (setting [3]) was “below the threshold”; with APBA1_2, Q02410 (setting [3]), “below the threshold”; with APBA2_2, Q99767 (setting [3]), “below the threshold”; with ARHGEF11, O15085 (setting [3]) it was “below the threshold”; in the test with DFNB31_1, Q9P202 (setting [3]), 3.92; in the test with DLG2_3, Q15700 (setting [3]), 4.18. Moreover, the pKd with DLG3_3, Q92796 (setting [3]) is 3.69; with DLG5_1, Q8TDM6 (setting [3]) it was “below the threshold”; with GRID2IP_2, A4D2P6 (setting [3]), “below the threshold”; in the test with GRIP1_2, Q9Y3R0 (setting [3]) it was “below the threshold”; with GRIP1_3, Q9Y3R0 (setting [3]), “below the threshold”; in the test with GRIP1_4, Q9Y3R0 (setting [3]), “below the threshold”. The pKd entry with GRIP2_5, Q9C0E4 (setting [3]) was “below the threshold”; with HTRA4, P83105 (setting [3]) it was “below the threshold”; with IL16_1, Q14005 (setting [3]), “below the threshold”; with IL16_3, Q14005 (setting [3]), “below the threshold”; in the test with Inadl_4, Q8NI35 (setting [3]) it was “below the threshold”; with MAST1, Q9Y2H9 (setting [3]), 3.92. The pKd result is “below the threshold” with MPP6, Q9NZW5 (setting [3]); “below the threshold” with MPP7, Q5T2T1 (setting [3]); “below the threshold” with NHERF2_2, Q15599 (setting [3]); “below the threshold” in the test with PARD3_3, Q8TEW0 (setting [3]); “below the threshold” with PDZD7_3, Q9H5P4 (setting [3]); 4.21 in the test with SNTG2, Q9NY99 (setting [3]).

The values are drawn from paper PMC9482650, “Quantitative fragmentomics allow affinity mapping of interactomes” (Nature Communications, 2022).
